Test results reported in publication PMC4029521.

Tested on: T1, AirR (Staphylococcus aureus NCTC8325), ORF:f68b8ed8
T1 sequence: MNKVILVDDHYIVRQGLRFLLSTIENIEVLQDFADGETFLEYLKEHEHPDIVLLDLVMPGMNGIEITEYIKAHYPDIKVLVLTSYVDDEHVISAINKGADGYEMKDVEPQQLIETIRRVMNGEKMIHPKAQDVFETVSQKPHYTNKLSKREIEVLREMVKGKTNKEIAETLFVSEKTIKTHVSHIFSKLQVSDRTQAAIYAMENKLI
Test: EMSA

AGCTACACGTAATTTCGCGCTTCGTGCTCTGTTATTGTCATCTAAATCTTCTTCTGTAGCGGTAATCGGTTTACGATTAACACGCTTTAACTTAGGTGTATATGCTTCTGGTATAACTGGTAATCCTCTTGGTACCTCTGGACCTTTTTCATATTCTTGGAACACCTGTTTACATAAACGATCTTCTAAAGAATGGAAAGTGATTACCGAAATCCTGCCATCTACTTTCACTAATTCAATCGCTTGTTCTATTGAATC (double strand) [pbp1 promoter (p-pbp1)]
binding: binds

GAATCGCGAACATGGACGAACGATTAGTTGTTAATTTTGAAAATTTATAAAAGGTTAAACGAATGCAGTGAGAGATGTCATTTTAATATCAATGTATGGCTATTTTGTAATGACAATGTAATGAGTTTAGTAAAACATTTCGGGAATATTAAATAGTTGGAAAATGAGAATTAAATCCTTTACTCAGTTGTCTAATTCTTTTAGTATGTGCAGTACAGTTTAATTGAAAACTAACTTTAACTTTAATGGAGGATGTTTTATACATGAAAAAATTAACAGCAGCAGCGATTGC (double strand) [lytM promoter (p-lytM)]
binding: binds
